In patent US20260199902A1, “SYSTEM AND APPARATUS FOR THE HAND-HELD AMPLIFICATION AND DETECTION OF NUCLEIC ACIDS” (Darwin Biosciences, Inc., priority 2022, published 2026):

Columns and labels:
RNase activity in saliva = experiment: RNase Alert Assay on saliva samples; type: biochemical, human
Experimental: FIGS. 3A-D. Optimizing and measuring RNase inhibition by murine RNase Inhibitor (mRI). (A) Diagram of the RNase Alert assay. A quenched fluorescent ssRNA probe reports RNase activity when the quencher and fluorophore are physically separated by RNase degradation. Data is collected immediately after saliva is added to the assay and the RNase activity is calculated from a linear slope of the first 90 second of measurements. (B) RNase activity in five individual saliva samples with or without addition of 4 U/μl mRI. (C) RT-qPCR data for a panel of 12 biomarkers indicating the relative abundance of each biomarker at the indicated time after lysis. Each timepoint is from a pooled saliva sample run through a separate device. Delta Ct values were normalized to the 0 second timepoint. Horizontal bars are mean+/−standard deviation. (D) RNase activity in four saliva samples before and after rehydrating an amplification pad containing 4 U/μl of lyophilized mRI. Saliva in rehydrated pads went through a 20-minute RPA incubation at 39° C. prior to addition to the RNase Alert assay showing that RNase inhibition is long-lived. Ct=Cycle Threshold. […]
To confirm that lyophilized mRI in the amplification pad can rehydrate and inhibit saliva RNases, four amplification pads were rehydrated with saliva and the contents of the rehydrated pads were measured in the RNase Alert Assay (FIG. 3D).

saliva RNases = experiment: RNase activity assay: cell line RNA incubated with treated saliva, read on Agilent TapeStation; type: biochemical, human; parameters: key: Pass (green) indicating sufficient RNase inactivation; Partial Pass (yellow) indicating partial RNase inactivation; Fail (red) indicating incomplete RNase inactivation
Experimental: FIG. 27. Example of saliva RNase activity assays assayed on TapeStation High Sensitivity RNA ScreenTapes (5067; Agilent). Results from three independent assays are shown. Lanes 1-3 (left to right) are experimental controls including 500 μg RNA in RNase free water, untreated saliva without added cell line RNA, and untreated saliva incubated with cell line RNA. Lanes labeled “Incomplete RNase Inactivation” contain no ribosomal RNA bands, indicating RNase activity is present. Lanes labeled “Sufficient RNase Inactivation” contain sharp ribosomal bands (similar to RNA in water), indicating RNases have been inactivated. gDNA=genomic DNA.
To screen for chemical and protein-based reagents that inhibit saliva RNases, we developed an RNase activity assay in which purified cell line RNA was incubated for 30 min at 37° C. with saliva samples after treatment with potential reagents for RNase inhibition (FIG. 2.5.3). After incubation, RNA was purified and analyzed on an Agilent TapeStation. Sharpness of the eukaryotic ribosomal RNA bands (28S and 18S) were compared to determine RNase activity in the presence of various inhibitors. In addition, the Agilent TapeStation calculates an RNA Integrity Score (RIN) as a measure of RNA quality (RIN of 10-fully intact RNA, RIN of 1=fully degraded RNA), however contaminating nucleic acid (e.g., 16S and 23S rRNA from bacteria) interferes with this calculation.
To screen for chemical and protein-based reagents that inhibit saliva RNases, we developed an RNase activity assay in which purified cell line RNA was incubated for 30 min at 37° C. with saliva samples after treatment with potential reagents for RNase inhibition (FIG. 2.5.3). After incubation, RNA was purified and analyzed on an Agilent TapeStation. Sharpness of the eukaryotic ribosomal RNA bands (28S and 18S) were compared to determine RNase activity in the presence of various inhibitors. […]

RT-RPA reactions = experiment: RT-RPA interference (compatibility) testing of lysis and RNase inhibitor reagents, agarose gel; type: biochemical; parameters: key: Pass (green) indicates that reagents did not interfere with RT-RPA; Partial Pass: Partial pass (yellow) indicates that reagents had partial interference in RT-RPA; Fail (red) indicates reagents completely interfered with RT-RPA reactions; settings: 4 U/μl final in RT-RPA reaction
Experimental: FIG. 28. Reagent interference testing in RT-RPA. Lysis and RNase inhibitor reagents tested in RT-RPA using cDNA and RNA templates. RT-RPA reactions were prepared with varying concentrations of reagents, as labeled above (final concentrations in a 20 μl RT-RPA reaction are reported). Amplification products were run on a 2% agarose gel and band intensities were compared to control (No added reagent) reactions. Reactions labeled in red contain no reverse transcriptase. The expected size of the CXCL8 amplicon is indicated to the left of the gel. GuHCI=Guanidine hydrochloride, Triton=Triton X-100.
Reagents under consideration for the device were tested for compatibility with RT-RPA at the concentrations expected to be required for lysis. To test for interference, lysis or RNase inhibitor reagents were spiked into RT-RPA reactions with purified cell line RNA or cDNA as a template. Reactions were analyzed by agarose gel for the presence or absence of amplified products. […]

B1: NEB RI, murine: murine RNase Inhibitor (M0314; New England BioLabs) (protein, UniProt Q91VI7 1-456, looked up)
Ribonuclease inhibitor: MSLDIQCEQLSDARWTELLPLIQQYEVVRLDDCGLTEVRCKDISSAVQANPALTELSLRTNELGDGGVGLVLQGLQNPTCKIQKLSLQNCGLTEAGCGILPGMLRSLSTLRELHLNDNPMGDAGLKLLCEGLQDPQCRLEKLQLEYCNLTATSCEPLASVLRVKADFKELVLSNNDLHEPGVRILCQGLKDSACQLESLKLENCGITAANCKDLCDVVASKASLQELDLSSNKLGNAGIAALCPGLLLPSCKLRTLWLWECDITAEGCKDLCRVLRAKQSLKELSLASNELKDEGARLLCESLLEPGCQLESLWIKTCSLTAASCPYFCSVLTKSRSLLELQMSSNPLGDEGVQELCKALSQPDTVLRELWLGDCDVTNSGCSSLANVLLANRSLRELDLSNNCMGGPGVLQLLESLKQPSCTLQQLVLYDIYWTNEVEEQLRALEEERPSLRIIS
RNase activity in saliva samples (RNase activity in saliva; 4 U/μL added, five donor saliva samples): reduced the RNase activity in all five samples to negligible amounts
Inhibition of RNase activity (RNase activity in saliva; lyophilized in amplification pad, rehydrated with saliva, four pads): Nearly complete inhibition of RNase activity
Inactivation of saliva RNases, Result (saliva RNases; 4 U/μl): Partial
Inactivation of saliva RNases, Result (saliva RNases; 8 U/μl): Pass
Compatibility in RT-RPA, Result (RT-RPA reactions): Pass

B2: Proteinase K: listed under Protein RNase Inhibitors (protein, UniProt P06873 106-384, looked up)
Proteinase K: AAQTNAPWGLARISSTSPGTSTYYYDESAGQGSCVYVIDTGIEASHPEFEGRAQMVKTYYYSSRDGNGHGTHCAGTVGSRTYGVAKKTQLFGVKVLDDNGSGQYSTIIAGMDFVASDKNNRNCPKGVVASLSLGGGYSSSVNSAAARLQSSGVMVAVAAGNNNADARNYSPASEPSVCTVGASDRYDRRSSFSNYGSVLDIFGPGTSILSTWIGGSTRSISGTSMATPHVAGLAAYLMTLGKTTAASACRYIADTANKGDLSNIPFGTVNLLAYNNYQA
Inactivation of saliva RNases, Result (saliva RNases; 50 μg/ml and 2.5 mg/ml): Fail
